# B1: CopASO (SO_1445), antitoxin of the ParESO-CopASO type II toxin-antitoxin system of prophage CP4So (natural protein, Shewanella oneidensis, UniProt Q8EGZ2 1-102, looked up)
# chain: MSTIKPVSVKLDADIKARVEHLAETRKRSSHWMMREAIREYVEREEKREALQQEALRAWEEHQTSGLHVTGDEVVSWLESWGSENEQAALHATNSLHCHCIT
# modifications: selenomethionine-substituted in the crystal
# notes: CopASO (SO_1445), antitoxin of prophage CP4So, Shewanella oneidensis; called full-length in the complex; 93 residues modelled in CopASO (I), 77 in CopASO (II); also called CopASO (I); CopASO (II)
# Tests used:
# [1] = test system: CopASO (Shewanella oneidensis (prophage CP4So)); test: ITC; details: ITC: 20 mM Tris pH 8.0, 100 mM NaCl, 5% (v/v) glycerol, 20 °C; 100-400 uM DNA injected into 10-100 uM protein; one-site model
# [2] = test system: CopASO;ParESO (in purified ParESO-CopASO complex) (Shewanella oneidensis (prophage CP4So);Shewanella oneidensis (prophage CP4So)); test: ITC; details: ITC: 20 mM Tris pH 8.0, 100 mM NaCl, 5% (v/v) glycerol, 20 °C; 100-400 uM DNA injected into 10-100 uM protein; one-site model
# [3] = molecular target: B1; test: crystal structure; Se-Met ParESO-CopASO complex, crystallised in 20% PEG3350, 0.2 M tri-sodium citrate at 20 °C; SAD, 3.80 Å; details: both partners purified
# [4] = molecular target: the molecule itself; test: as above
molecule,measurement,setting,value
TAAGGTATTACCTAGTAGTACTAAG (double strand) [25 bp copASO-parESO promoter duplex],Kd,[1],16 nM
same,Kd,[2],660 nM
"ParESO (SO_1444), toxin of the ParESO-CopASO type II toxin-antitoxin system of prophage CP4So (natural protein, Shewanella oneidensis, selenomethionine-substituted in the crystal, also called ParESO (I); ParESO (II)) MPQIVFTATALRDLERLREFLRSKNPPAAQRAASAIINTIRKLESYPDIGRPIDDNDFSFRELLIDFGDTGYLAMYQYDGGERLTVLCIRHQKEAGY",binding result,[3],binds
B1,stoichiometry N,[4],2

# — publication PMC8706911, “Insights into the Neutralization and DNA Binding of Toxin–Antitoxin System ParESO-CopASO by Structure-Function Studies” (Microorganisms, 2021)
